Measurements from patent publication US20260374880 (published 2026).
Values joined by “and” are separate entries in the source; they are usually repeats but may differ in a detail not shown here. Equal values may be shown once.

T1: TGFbR1 ECD I130G (human)
T1 chain: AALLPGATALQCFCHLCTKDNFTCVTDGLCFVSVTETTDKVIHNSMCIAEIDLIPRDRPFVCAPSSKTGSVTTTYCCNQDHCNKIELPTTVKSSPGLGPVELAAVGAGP

T2: human TGFbR1 ECD 33-125-myc(His)6 (human)
T2 chain: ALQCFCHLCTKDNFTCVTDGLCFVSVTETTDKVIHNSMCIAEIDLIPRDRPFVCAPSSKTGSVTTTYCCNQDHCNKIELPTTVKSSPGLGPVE

T3: TGFbR1 ECD L126A (human)
T3 chain: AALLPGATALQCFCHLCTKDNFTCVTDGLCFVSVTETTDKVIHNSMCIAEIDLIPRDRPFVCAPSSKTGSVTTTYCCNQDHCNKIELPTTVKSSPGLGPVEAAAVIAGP

T4: TGFbR1 ECD P133A (human)
T4 chain: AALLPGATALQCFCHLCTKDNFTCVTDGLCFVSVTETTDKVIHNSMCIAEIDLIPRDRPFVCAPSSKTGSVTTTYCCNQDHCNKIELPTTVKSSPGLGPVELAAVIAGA

T5: human TGFbR1 ECD-133-myc(His)6 (human)
T5 chain: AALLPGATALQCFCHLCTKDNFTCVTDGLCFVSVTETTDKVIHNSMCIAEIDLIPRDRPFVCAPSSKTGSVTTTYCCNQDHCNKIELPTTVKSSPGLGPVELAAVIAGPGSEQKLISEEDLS

T6: TGFbR1 ECD V129G (human)
T6 chain: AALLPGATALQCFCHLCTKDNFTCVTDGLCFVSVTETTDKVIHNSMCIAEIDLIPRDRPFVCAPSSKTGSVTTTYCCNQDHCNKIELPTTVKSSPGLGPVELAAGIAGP

T7: murine TGFbR1 ECD-133-myc(His)6 (mouse, UniProt Q64729)
T7 chain: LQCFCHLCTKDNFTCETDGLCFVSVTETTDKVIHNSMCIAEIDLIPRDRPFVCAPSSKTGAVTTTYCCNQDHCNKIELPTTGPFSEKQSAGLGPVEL

T8: endogenous TGFbR1 on cells (human)
T8 chain: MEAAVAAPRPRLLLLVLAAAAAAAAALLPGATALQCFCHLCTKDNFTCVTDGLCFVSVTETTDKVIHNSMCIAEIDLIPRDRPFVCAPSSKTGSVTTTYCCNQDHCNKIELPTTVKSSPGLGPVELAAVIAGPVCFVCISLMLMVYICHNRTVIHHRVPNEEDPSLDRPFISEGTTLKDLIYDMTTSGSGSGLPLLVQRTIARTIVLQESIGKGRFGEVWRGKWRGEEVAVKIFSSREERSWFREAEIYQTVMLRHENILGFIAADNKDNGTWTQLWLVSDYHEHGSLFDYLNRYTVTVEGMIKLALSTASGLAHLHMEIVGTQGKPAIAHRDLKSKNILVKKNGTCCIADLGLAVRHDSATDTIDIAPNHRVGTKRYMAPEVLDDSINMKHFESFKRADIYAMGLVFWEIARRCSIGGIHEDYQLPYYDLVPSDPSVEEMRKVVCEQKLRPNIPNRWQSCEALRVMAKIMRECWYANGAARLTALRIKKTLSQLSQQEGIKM

T9: human TGFbR1 ECD-133-huFc (human)
T9 chain: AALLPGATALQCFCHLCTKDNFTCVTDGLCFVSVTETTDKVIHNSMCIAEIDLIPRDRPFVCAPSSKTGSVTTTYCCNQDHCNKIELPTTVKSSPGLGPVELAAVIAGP

T10: TGFbR1 ECD G132A (human)
T10 chain: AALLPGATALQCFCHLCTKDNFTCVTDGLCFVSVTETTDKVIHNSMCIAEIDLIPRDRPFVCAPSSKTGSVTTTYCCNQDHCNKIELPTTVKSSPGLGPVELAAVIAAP


Experiments:
TGFbR1 ECD I130G = biological target: T1, TGFbR1 ECD I130G; assay: ELISA
[1] = biological target: T2, human TGFbR1 ECD 33-125-myc(His)6; assay: ELISA
TGFbR1 ECD L126A = biological target: T3, TGFbR1 ECD L126A; assay: ELISA
TGFbR1 ECD P133A = biological target: T4, TGFbR1 ECD P133A; assay: ELISA
[2] = biological target: T5, human TGFbR1 ECD-133-myc(His)6; assay: BLI
[3] = biological target: T5, human TGFbR1 ECD-133-myc(His)6; assay: BLI
TGFbR1 ECD V129G = biological target: T6, TGFbR1 ECD V129G; assay: ELISA
[4] = biological target: T5, human TGFbR1 ECD-133-myc(His)6; assay: SPR, biotinylated mAb
[5] = biological target: T7, murine TGFbR1 ECD-133-myc(His)6; assay: BLI
[6] = biological target: T8, endogenous TGFbR1 on cells; assay: FACS, RWPE cells
[7] = biological target: T8, endogenous TGFbR1 on cells; assay: FACS, PC-3U cells
[8] = biological target: T9, human TGFbR1 ECD-133-huFc; assay: BLI
TGFbR1 ECD G132A = biological target: T10, TGFbR1 ECD G132A; assay: ELISA
[9] = biological target: T5, human TGFbR1 ECD-133-myc(His)6; assay: SPR
[10] = biological target: T5, human TGFbR1 ECD-133-myc(His)6; assay: ELISA
[11] = biological target: T5, human TGFbR1 ECD-133-myc(His)6; assay: BLI
[12] = biological target: T9, human TGFbR1 ECD-133-huFc; assay: ELISA

Binder | Kd [11] [nM] | EC50 [12] [µg/mL] | other results
mAb #19 murine chimeric IgG1 (antibody, V domains shown) VH: not shown VL: DIQMTQSPSSLSASVGDRVTITCRASQSISSYLNWYQQKPGKAPKLLIYAASSLQSGVPSRFSGSGSGTDFTLTISSLQPEDFATYYCQQGYGPLTFGQGTKLEIK |  |  | binding result (TGFbR1 ECD I130G): no binding; binding result [1]: no binding; binding result (TGFbR1 ECD L126A): no binding; binding result (TGFbR1 ECD P133A): no binding; Kd [2]: 3.7 nM; Kd [3]: 3.74 nM; binding result (TGFbR1 ECD V129G): no binding; Kd [4]: 2.5 nM and 2.3 nM and 1.8 nM; Kd [5]: 18 nM; Kd [6]: 7.81 nM; Kd [7]: 10.7 nM; Kd [8]: 13 nM; binding result (TGFbR1 ECD G132A): no binding; Kd [9]: 5.6 nM and 6.5 nM; IC50 [10]: 0.104 nM
YU772-H05 (antibody, V domains shown) VH: EVQLLESGGGLVQPGGSLRLSCAASGFTFSSYAMSWVRQAPGKGLEWVSAISGSGGTTYYADSVKGRFTISRDNSKNTLYLQMNSLRAEDTAVYYCARVVGYVFGGYYGGGMDYWGQGTLVTVSS VL: DIQMTQSPSSLSASVGDRVTITCRASQSISSYLNWYQQKPGKAPKLLIYAASSLQSGVPSRFSGSGSGTDFTLTISSLQPEDFATYYCQQGYGPLTFGQGTKLEIK | 12 | 0.03 | 
Antibody 19 (parental) (antibody, V domains shown) VH: not shown VL: DIQMTQSPSSLSASVGDRVTITCRASQSISSYLNWYQQKPGKAPKLLIYAASSLQSGVPSRFSGSGSGTDFTLTISSLQPEDFATYYCQQGYGPLTFGQGTKLEIK | 22 | 0.139 | 
mAb #19 human IgG1-LALA (antibody, V domains shown) VH: not shown VL: DIQMTQSPSSLSASVGDRVTITCRASQSISSYLNWYQQKPGKAPKLLIYAASSLQSGVPSRFSGSGSGTDFTLTISSLQPEDFATYYCQQGYGPLTFGQGTKLEIK |  |  | Kd [2]: 5.9 nM; IC50 [10]: 0.139 nM
YU771-B12 (antibody, V domains shown) VH: EVQLLESGGGLVQPGGSLRLSCAASGFTFSSYPMSWVRQAPGKGLEWVSAISGYGGSTYYADSVKGRFTISRDNSKNTLYLQMNSLRAEDTAVYYCARVVGYVYGGSYGGGMDYWGQGTLVTVSS VL: DIQMTQSPSSLSASVGDRVTITCRASQSISSYLNWYQQKPGKAPKLLIYAASSLQSGVPSRFSGSGSGTDFTLTISSLQPEDFATYYCQQGYGPLTFGQGTKLEIK | 16 | 0.0244 | 

Further lines, with some results ahead:

Kd [11] [nM] | EC50 [12] [µg/mL] | Binder | other results
7.6 | 0.0249 | YU772-F11 (antibody, V domains shown) VH: EVQLLESGGGLVQPGGSLRLSCAASGFTFSTYPMSWVRQAPGKGLEWVSAISGSGGSTYYADSVKGRFTISRDNSKNTLYLQMNSLRAEDTAVYYCARVVGYVYRGSYGGGMDYWGQGTLVTVSS VL: DIQMTQSPSSLSASVGDRVTITCRASQSISSYLNWYQQKPGKAPKLLIYAASSLQSGVPSRFSGSGSGTDFTLTISSLQPEDFATYYCQQGYGPLTFGQGTKLEIK | 
7.9 | 0.0314 | YU772-A11 (antibody, V domains shown) VH: EVQLLESGGGLVQPGGSLRLSCAASGFTFSSYAMSWVRQAPGKGLEWVSAISGSGGYTYYADSVKGRFTISRDNSKNTLYLQMNSLRAEDTAVYYCARVVGYVYDGAYGGGMDYWGQGTLVTVSS VL: DIQMTQSPSSLSASVGDRVTITCRASQSISSYLNWYQQKPGKAPKLLIYAASSLQSGVPSRFSGSGSGTDFTLTISSLQPEDFATYYCQQGYGPLTFGQGTKLEIK | 
8.7 | 0.0213 | YU772-G12 (antibody, V domains shown) VH: EVQLLESGGGLVQPGGSLRLSCAASGFPFSTYAMSWVRQAPGKGLEWVSAISGSGGYTYYADSVKGRFTISRDNSKNTLYLQMNSLRAEDTAVYYCARVVGYVYGGSYGGGMDYWGQGTLVTVSS VL: DIQMTQSPSSLSASVGDRVTITCRASQSISSYLNWYQQKPGKAPKLLIYAASSLQSGVPSRFSGSGSGTDFTLTISSLQPEDFATYYCQQGYGPLTFGQGTKLEIK | 
8.8 | 0.0257 | YU772-G04_VH-YU771-A09-VL (antibody, V domains shown) VH: EVQLLESGGGLVQPGGSLRLSCAASGFPFSSYAMSWVRQAPGKGLEWVSAISGSGGTTYYADSVKGRFTISRDNSKNTLYLQMNSLRAEDTAVYYCARVAGYVHRGFYGGGMDYWGQGTLVTVSS VL: DIQMTQSPSSLSASVGDRVTITCRASQSIYSHLNWYQQKPGKAPKLLIYAASTLQSGVPSRFSGSGSGTDFTLTISSLQPEDFATYYCQQAYGPLTFGQGTKLEIK | 
11 | 0.022 | YU771-A01 (antibody, V domains shown) VH: not shown VL: DIQMTQSPSSLSASVGDRVTITCRASQSISSYLNWYQQKPGKAPKLLIYGASFLQYGVPSRFSGSGSGTDFTLTISSLQPEDFATYYCQQGYGPLTFGQGTKLEIK | 
7.3 | 0.0303 | YU772-D10_VH-YU772-C01_VL (antibody, V domains shown) VH: EVQLLESGGGLVQPGGSLRLSCAASGFTFSSYPMSWVRQAPGKGLEWVSAISGYGGSTYYADSVKGRFTISRDNSKNTLYLQMNSLRAEDTAVYYCARVVGYVYDGSYGGGMDYWGQGTLVTVSS VL: DIQMTQSPSSLSASVGDRVTITCRASQSIWSYLNWYQQKPGKAPKLLIYAASSLQSGVPSRFSGSGSGTDFTLTISSLQPEDFATYYCQQGYGPLTFGQGTKLEIK | 
7.8 | 0.0225 | YU772-D10 (antibody, V domains shown) VH: EVQLLESGGGLVQPGGSLRLSCAASGFTFSSYPMSWVRQAPGKGLEWVSAISGYGGSTYYADSVKGRFTISRDNSKNTLYLQMNSLRAEDTAVYYCARVVGYVYDGSYGGGMDYWGQGTLVTVSS VL: DIQMTQSPSSLSASVGDRVTITCRASQSISSYLNWYQQKPGKAPKLLIYAASSLQSGVPSRFSGSGSGTDFTLTISSLQPEDFATYYCQQGYGPLTFGQGTKLEIK | 
8.9 | 0.0231 | YU771-E01 (antibody, V domains shown) VH: not shown VL: DIQMTQSPSSLSASVGDRVTITCRASESISSYLNWYQQKPGKAPKLLIYGASFLQWGVPSRFSGSGSGTDFTLTISSLQPEDFATYYCQQGYGPLTFGQGTKLEIK | 
